Reference: the nanobody polyreactivity screen of Harvey et al. (2022)

Test: yeast display, Sf9 membrane polyspecificity reagent, FACS + sequencing; frameworks hold sequencing errors
How it was run: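 Nanobodies came from a synthetic yeast display library in Saccharomyces cerevisiae BJ5465, induced with galactose for 36–48 hours and stained for 1 hour at 4 °C with 10% biotinylated, detergent-solubilized Sf9 membrane reagent. Cells were enriched on streptavidin microbeads and then FACS-sorted, with low and high (top ~1%) gates set on anti-HA fluorescence for expression and streptavidin fluorescence for reagent binding. Each polyreactivity label reflects the gate a clone came from. Genes were amplified by colony PCR, sequenced by MiSeq 2 × 250 and filtered by CDR length.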
With “QVQLVESGGGLVQAGGSLRLSCAASGRPFSGYAMGWYRQAPGKERELVAAITSSGSSTYYADSVKGRFTISRDNAKNTVYLQMNSLKPEDTAVFYCAATPQAHSERYYYQRKYDYWGQGTQVTVSS” the “polyreactivity (PSR sort gate)” value was “low polyreactivity”. In the case of “QVQLVESGGGLVQAGGSLRLSCAASGFIFQIYAMGWYRQAPGKERELVAAISSGGSTNYADSVKGRFTISRDNAKNTVYVQMNSMKPEDTAVYYCAAATHYWYFYSFKDKSGFRGYYWGQGTQVTVSS”, the “polyreactivity (PSR sort gate)” value was “high polyreactivity”. In the case of “QVQLVESCGGLVQAGGSLRLSCAASGYTFSFNAMGWYRQAPGKESELVADINLSGGYTYYADSVKGRFTISRDNAKNTVYLQINSLKPEDTAVYYCAADLYDYWTEGYAFLFEYWGQGTQVTVSS”, the “polyreactivity (PSR sort gate)” value was “low polyreactivity”. With “QVQLVESGGGLVQAGGRLRLSCAASGITSLDNAMGWYRQAPGKQRELVAGIKSGGSTNYADSVKGRFTISRDNAKNTVYLQMNSLKPEDTAVYYCAADDFIGSGRLVARGRYDYWGQGTQVTVSS” the “polyreactivity (PSR sort gate)” value was “low polyreactivity”. In the case of “QVQLVESGGGLVQAGGSLRLSCAASGRIFPGYAMGWYRQAPGKERELVASIRWSGDSTYYADSVKGRFTISRDNAKNTVYLQMNSLKPEDTAVYYCNRRWYRGDYWGQGTQVTVSS”, the “polyreactivity (PSR sort gate)” value was “low polyreactivity”. With “QVQLVESGGGLVQAGGSLRLSCAASGIIFGSNTMGWYRQAPGKERELVAAITSSDGSTHYADSVKGRFTISRDNAKNTVYLQMKSLKPEDTAVYYCAARKVTYGHSYGYDYWGQGTQVTLSS” the “polyreactivity (PSR sort gate)” value was “low polyreactivity”. With “QVQLVESGGGLVQAGGSLRLSCAASGRTFYSYVMGWYRQAPGKERELVAAISSTGGTYADSVKGRFTISRDNAKNTVYLQMNSLKPEDTAVYYCAARVHFPYPDYAWITVLYDYWGQGTQVTVSS” the “polyreactivity (PSR sort gate)” value was “low polyreactivity”. With “QVQLVESGGGLVQAGGSLRLSSAASGSTIRFNAMGWYRQAPGKERELVAVIRWRGGTTYYADSVKGRFTISRDNAKNTVYLQINSLKPEDSAVYYCNADYWFSYTWHGSYTVGYWGQGTQVTVSS” the “polyreactivity (PSR sort gate)” value was “high polyreactivity”. In the case of “QVQLVESGGGLVQARGSLRLSCAASGFTSLWNGMGLSSQAPGKERELVAAITSDSSTYYADSVKGRFTISRDNAKNTVYLQMNSLKPEDTAVYYCAKYFVYVGYGRYDYWGQGTEVTVSS”, the “polyreactivity (PSR sort gate)” value was “low polyreactivity”. For “QVQLVESGAGLVQAGGSLRLSCPASGYIFWWTALGWSRQQPGKERELVAGISWSGSTTYYADSVKGRFTISRDNAKNTVYLQMNSLNPEDTAVYYCNAADITLYDYDYWGQGTQVTVSS”, the “polyreactivity (PSR sort gate)” value was “low polyreactivity”. With “QVQLVESVGGLVQAGGSLRLICAASGSIFSRYAMGWYRQAPGKEREFVARITQRGGSTYYADSVKGRFTISRDNAKNTVYLQRQSLKPEDTAVYYCNADHYRRLLAEDYWGQGTQVTVSS” the “polyreactivity (PSR sort gate)” value was “low polyreactivity”. In the case of “QVQLVESGGGLVQAGGSLRLSCAASGSTFETYAMGWYRQAPGKEMELVAAISKTGARTYYADSVKGRFTISRDNAKNTVYLQMNSLKPEDTAVYYCAAERKAHRKPHSRVDKYYYWGQGTQVTVSS”, the “polyreactivity (PSR sort gate)” value was “high polyreactivity”. With “QVQLVESGGGLVQAGGSLRLSCAASGSTFGLNTMGWYRQAPGKERELVAGITWSGGTTYYADSVKGRFTISRDNAKNTVYLQMNSLKPEDTAVSYCAAAVSDHYWYSRAYYYWGQGTQVTVSS” the “polyreactivity (PSR sort gate)” value was “high polyreactivity”. With “QVQLVESGGGLVQAGGSLRLSCAASGRIFQYYAMGWYRQAPGKERELVAAINSSGGRTYYADSVKGRFTISRDNAKNTVYLQMNSLKPEDTAVYYCNAVLSTRGMDYWGQGTQVTVSS” the “polyreactivity (PSR sort gate)” value was “high polyreactivity”. For “QVQLVESGGRLVQAGGSLRLSCAASGITIRWYAKGWYRQAPGKERELVSRIDGRGASTYADSVKGRFTSSRDNAKNTVYLQMNRLKPEDTAVYYCAVAQVRVSYLWVRKFYYWGQGTQVTVSS”, the “polyreactivity (PSR sort gate)” value was “high polyreactivity”. With “QVQLVESGGGLVQAGGSLRLSCAASGRIFKYNAMGWYRQAPGKERELVAAISGTGGSTYYADSVKGRFTISRDNAKNTVYLQMNSLKPEDTAVYYCAARYYIVSLGSGYWGQGTQVTVSS” the “polyreactivity (PSR sort gate)” value was “high polyreactivity”. In the case of “QVQLVESGGGLVQAGGSLRLSCAAYGSIFRWYAMGWYRQAPGKERELVAAISTSGGNKYYADSVKGRFTISRDNAKNTVYLQMNSLKPEDTAVYYCNALWYRSLSYRYDYWGQGTQVTVSS”, the “polyreactivity (PSR sort gate)” value was “high polyreactivity”. For “QVQLVESGGGLVQAGGSLRISCAASGRIFKVYAMGWYRQAPGKERELVAAMSRSGGSTYYADSVKGRFTISRDNAKKTVYFQMNSLKPEDTAVYYCHAYFVYGHACGYDYWGQGSQVTVSS”, the “polyreactivity (PSR sort gate)” value was “high polyreactivity”. With “QVQLVESGGGLVQAGGSLRLSCAASGSTFSPYAMGWYRQAPGKERELVADISWPGGTTYYADSVKGRFTISRDNAKNTVYLQMNSLKPEDTAVYYCAVTYWDYTFQITYEYWGQGSQVTVSS” the “polyreactivity (PSR sort gate)” value was “low polyreactivity”. With “QVQLVESGGGLVQAGGSLRLSCAASGSIFWRNAMGWYRQAPGKERELVAAISGNGGTTYYADSVKGRFTISRDNAKNTVYLQMNSLKPEDTAVYYCAKVGKTYRTYEYWGQGTQVTVSS” the “polyreactivity (PSR sort gate)” value was “high polyreactivity”. With “QVQLVESGGGLVQAGGSLRLSCAASGSTFYLYAMGWYRQAPGKERELVAAISRGGTTYYADSVKGRFTISRDNAKNTVYLQMNSLKPEETAVYYCNARYTSRRSRRPYYYWGQGTQVTVSS” the “polyreactivity (PSR sort gate)” value was “high polyreactivity”. For “QVQLEESGGGLVQAGGSLRLSCPASGRTFHGYAMGSYRQAPGKERELVAAITGTGGRTYYADSVKGRFTISRDNAKNTVYLQMNSLKPEDTAVYYCAARPWIKSGYWGQGTQVTVSS”, the “polyreactivity (PSR sort gate)” value was “high polyreactivity”. In the case of “QVQLVESGGGLVQAGGSLRLSCAASGFIFGTYAMGWYRQAPGNERELVAAISVGGGSTYYADSVKGRFTISRDNAKNTVYLQMNSLKPEDTAVYYCAAVQLYQKHQITYVAHEYWGQGTQVTVSS”, the “polyreactivity (PSR sort gate)” value was “low polyreactivity”. In the case of “QVQLVESGGALVQAGGSLRLSCAASGSTFVYYAMGWYRQAPGKERELVAAISRSGTSTYYADSVKGRFTISRDNAKNTVYLQMNSLKPEDTAVYYCNARKKQGYDYWGQGTQVTVSS”, the “polyreactivity (PSR sort gate)” value was “high polyreactivity”. With “QVQLVESGGGLVQAGGSLRLSCAASGFIFSSNTMGWYRQAPGKERELVADITSGARTNYADSVKGRFTISRDNAKNTVYLQMNSLKPEDTAVYYCAAYPHYIYFTWYPRYTYGYWGQGTQVTVSS” the “polyreactivity (PSR sort gate)” value was “low polyreactivity”. For “QVQLVESGGGLVQAGGSLRLSCAASGSTFQYYAMGWYRQAPGKEREMVAAISASVDTTFYADSVKGRFTISRDNAKNTVYLQMNSLKPEDTAVYYCATDWPHWRKVYWFDYWGQGTQVTVSS”, the “polyreactivity (PSR sort gate)” value was “low polyreactivity”. With “QVQLVESGGGLVQAGGSLRLSCAASGCIFASYPMGWYRPAPGTERELVAAISRAGSTYYADSVKGRFTISRDNAKNTDYLQMNSLKPEDTAVYYCNADFNWGYNYWGQGTQVTGSS” the “polyreactivity (PSR sort gate)” value was “high polyreactivity”. With “QVQLVESGGGLVQAGGSLRLSCAASGITFSRNAMGWYRQAPGKERELVAVISTRGGRTYYADSVKGRFTISRDNAKNTFYLQMNSLKPEDTAVYYCAASPDPYWRRMDYWGQGTQVTVSS” the “polyreactivity (PSR sort gate)” value was “high polyreactivity”. For “QVQLVESGGGLVQAGGSLRLSCAASGRTFDVYAMGWYRQAPGKEMELVAAITRRGGSTYYADSVKGRFTISRDNAKNTVNLQMNRLKPEDTAVYYCSAAYSRGSGVGRYRLDYWGKGTQVTVSS”, the “polyreactivity (PSR sort gate)” value was “high polyreactivity”. For “QVQLVESGGGLVQAGGSLRLSCAASAFIFIIYAMGWYRQAPGKERELVAGIRWSGGSTYYADSVKGRFTISRDNAKNTVYLQMNSLKQEDTAVYYCNKDRGSLTLYTYDYWGQGTQVTVSS”, the “polyreactivity (PSR sort gate)” value was “low polyreactivity”. In the case of “QVQLVESGGGLVQAGGSLRLSCAASGRTLFRYAMGWYRQAPGKERELVAAISRSGGTTYYADSVKGRFTISRDNAKNTVYLQMNSLKPEDTAVYYCAARFVLRRDYGYWGQGTQVTVSS”, the “polyreactivity (PSR sort gate)” value was “high polyreactivity”. In the case of “QVQLVESVGGLVQAGGSLRLSCAASGRTLPWYAMGWYRQAPGKERELVAVIRWIGGRTYYADSVKGRFTISRDNAKNTVYLQMNSLKPEDTAVYYCAARPHYYYGWYYYWGQGTQVTVSS”, the “polyreactivity (PSR sort gate)” value was “high polyreactivity”. For “QVQLVESGGGLVQAGGSLRLSCAASGRIIRYYAMGWYRQAPGKEREFVATISSGGSTNYADSVKGRFTISRDNAKNTVYLQMNSLKPEDTAVYYCNRVYRRHVWGQGTQVTVSS”, the “polyreactivity (PSR sort gate)” value was “high polyreactivity”. In the case of “QVQLVESGGGLVQAGASLRLSCAASGRIYIYAMGWYRQAPGKEREMVAAITGGASTNYADSVKGRFTISRDNAKNTVYLQLISLKPEDTAVYYCNAVAYVYGSFRRRPMGYWGQGTQVTVSS”, the “polyreactivity (PSR sort gate)” value was “high polyreactivity”. With “QVQLVESGGGLVQAGGSLRLSCAASGITFRTNTMGWYRQAPGKERELVAAITRSGVTTYYADSVKGRFTISRDNAKNTVYLQMNSLKPEDTAVYYCAAKSFYAHYDYWGQGTQVTVSS” the “polyreactivity (PSR sort gate)” value was “high polyreactivity”. In the case of “QVQLVESGGGLVQAGGSLRLSCAASGFIFDTYALGWYRQAPGKERELVAVMSSSGGRTYYADSVKGRFTISRDNAKNTVYLQMNSLKPEDNAVYYCAARWYSGYGRFDYWGQGTQVTVSS”, the “polyreactivity (PSR sort gate)” value was “high polyreactivity”. In the case of “QVQLVESGGRLLQAGGSLRLSCAASGYTIDPYDMGWYRQAPGKERELVASISWSGGDTYYADSVKGRFSISRDNAKNTVYLQMNRLKPEDPAVYYCAADPGYAANRTEWRDFDYWGQGTQVTVSS”, the “polyreactivity (PSR sort gate)” value was “low polyreactivity”. With “QVQLVESGGGLVQAGGRLRLSCAASGRTFRYNAMGGSRQAPGKERELVAAISGGDSTYYADSEKGRFTFSRDNAKNTVYLQMNCLKPEDTAVYYCAGRTYRRRVSQSVSRNDYWGQGTQVTVSS” the “polyreactivity (PSR sort gate)” value was “high polyreactivity”. In the case of “QVQLVESAGGLVQAGGSLSLSCAASGSTFYKYTMGWDRQAPGKERELVAAISGSGTTTYYADSVKGRFTISRDNAKNTVYLQMNSLKPEDTAVYYCAAHSRSSSGYHWGQGTQVTVSS”, the “polyreactivity (PSR sort gate)” value was “high polyreactivity”. In the case of “QVQLVESGGRLVQAGGSLRLSCAASGRIFWHNAMGWYRQAPGKETELVAAISSRGGSTSYSDSVKGRFTISRDNAKNTVYLQMNSLKPEDTAVYYCAALFRPRVHRYDYWGQGTQVTVSS”, the “polyreactivity (PSR sort gate)” value was “low polyreactivity”. For “QVQLVESGGGLVQAGGSLRLSCAASGSTFDRNVMGWYRQAPGKERELVAAISRVSSTNYADSVKGRFTISRDNAKNTVYLQMISLKPEDTAVYYCAVDNISNWAVENDYWGQGTQVTVSS”, the “polyreactivity (PSR sort gate)” value was “low polyreactivity”. With “QVQLVESGGGLVQAGGSLRLSCAASGSIFGSYDMGWYRQAPGKERELVAAISEGGGSTYYADTVKGRFTISRDNAMNTVYLQMYSLKPEDTAVYYCAADLILSYYPYYQDYYWGQGTQVTVSS” the “polyreactivity (PSR sort gate)” value was “low polyreactivity”. For “QVQLVESGGGLVQAGGSLRLSCAASGSTFQVYAMGWYRQAPGKERELVAAISNGGRTNYADSVKGRFTISRDNAKNTVYLQMNSLKPEDTAVYYCNADQVWWSFDRVLVGYEYWGQGTQVTVSS”, the “polyreactivity (PSR sort gate)” value was “low polyreactivity”.
